# Results from patent US20140057807A1 (UNIVERSITY OF CHICAGO, published 2014).
# Target: T1, human serum albumin (human, UniProt P02768 25-609)
# T1 construct: also called HSA
# Test: cradle library selection hit
# T1 sequence (P02768 25-609 limits assumed): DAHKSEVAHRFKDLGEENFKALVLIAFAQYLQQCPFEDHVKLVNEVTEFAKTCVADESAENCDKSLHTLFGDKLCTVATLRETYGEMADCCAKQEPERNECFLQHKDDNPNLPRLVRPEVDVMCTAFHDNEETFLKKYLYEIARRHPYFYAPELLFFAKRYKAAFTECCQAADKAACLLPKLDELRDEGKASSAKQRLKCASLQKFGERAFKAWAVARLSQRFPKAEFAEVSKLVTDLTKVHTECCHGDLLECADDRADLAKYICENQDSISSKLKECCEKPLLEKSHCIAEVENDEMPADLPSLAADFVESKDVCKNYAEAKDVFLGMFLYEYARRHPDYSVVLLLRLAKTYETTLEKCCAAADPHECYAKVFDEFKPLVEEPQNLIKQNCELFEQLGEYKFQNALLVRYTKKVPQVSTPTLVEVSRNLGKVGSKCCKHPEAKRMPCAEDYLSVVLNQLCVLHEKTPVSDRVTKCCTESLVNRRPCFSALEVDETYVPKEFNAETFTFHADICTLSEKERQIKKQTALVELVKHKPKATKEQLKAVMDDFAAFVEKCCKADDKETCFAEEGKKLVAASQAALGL
row,Binder,binding result
1,SEQ ID NO 257 (designed binder) NVSPPRRARVTDATETTITISWRTKTETITTFDVYAYPGYGGSYWSIQRTIKPDVRSYTITGLQPGTSYEIELETLHYSHAYPVVIDAST,binds
2,SEQ ID NO 258 (designed binder) NVSPPRRARVTDATETTITISWRTKTETITYFSVLAHPLEVSSYSIQRTIKPDVRSYTITGLQPGTGYRIFLSTLRWYYGMPVVIDAST,binds
3,SEQ ID NO 260 (designed binder) NVSPPRRARVTDATETTITISWRTKTETITYFYVSAYPYYVAYDIQRTIKPDVRSYTITGLQPGTYYDINLSTLSYSDNSPVVIDAST,binds
4,SEQ ID NO 255 (designed binder) NVSPPRRARVTDATETTITISWRTKTETITEFFVMAEPYYGEGYYIQRTIKPDVRSYTITGLQPGTSYSINLYTLKRPYLYPVVIDAST,binds
5,SEQ ID NO 266 (designed binder) NVSPPRRARVTDATETTITISWRTKTETITRFSVLAYPSKRTTYTPIQRTIKPDVRSYTITGLQPGTGYTIRLYTLSPYYWVYPVVIDAST,binds
6,SEQ ID NO 263 (designed binder) NVSPPRRARVTDATETTITISWRTKTETITQFWVLAGPSVWTGRMSIQRTIKPDVRSYTITGLQPGTTYYIGLYTLQYYEYSPVVIDAST,binds
7,SEQ ID NO 261 (designed binder) NVSPPRRARVTDATETTITISWRTKTETITYFKVRAYPAYNYGGWSIQRTIKPDVRSYTITGLQPGTYYSIYLDTLYLGAYWYPVVIDAST,binds
8,SEQ ID NO 254 (designed binder) NVSPPRRARVTDATETTITISWRTKTETITYFSVEAYPRWYALIQRTIKPDVRSYTITGLQPGTSYYIYLWTLMMDTSSPVVIDAST,binds
9,SEQ ID NO 265 (designed binder) NVSPPRRARVTDATETTITISWRTKTETITYFHVNAQPSSPPWIQRTIKPDVRSYTITGLQPGTYYGISLYTLSWRGEYHPVVIDAST,binds
10,SEQ ID NO 253 (designed binder) NVSPPRRARVTDATETTITISWRTKTETITRFYVSAQPRFYYYNIQRTIKPDVRSYTITGLQPGTDYTIGLYTLGVYMHYPVVIDAST,binds

# The next lines start with the values.
row,binding result,Binder
1,binds,SEQ ID NO 256 (designed binder) NVSPPRRARVTDATETTITISWRTKTETITSFYVMAQPTNYYGQSTYIQRTIKPDVRSYTITGLQPGTYYGIQLYTLMYRASAPVVIDAST
2,binds,SEQ ID NO 259 (designed binder) NVSPPRRARVTDATETTITISWRTKTETITYFSVYANPMYPFYIQRTIKPDVRSYTITGLQPGTYYEIYLGTLYYFATYPVVIDAST
3,binds,SEQ ID NO 262 (designed binder) NVSPPRSARVTDATETTITISWRTKTETITYFVVGAFPAYSAHVDIQRTIKPDVRSYTITGLQPGTGYIINLETLINATGYPVVIDAST
4,binds,SEQ ID NO 252 (designed binder) NVSPPRRARVTDATETTITISWRTKTETITSFRVDAGPGVAGSIQRTIKPDVRSYTITGLQPGTYYQIQLAALAYGYYPVVIDAST
5,binds,SEQ ID NO 264 (designed binder) NVSPPRRARVTDATETTITISWRTKTETITTFRVWARPYLYYWIQRTIKPDVRSYTITGLQPGTHYDIGLSTLSSTWYYPVVIDAST
6,binds,SEQ ID NO 251 (designed binder) NVSPPRRARVTDATETTITISWRTKTETITEFDVGADPGKGHAIQRTIKPDVRSYTITGLQPGTSYLIGLRTLNRVLHYPVVIDAST
